From the supplement of paper PMC7125110
± gives the standard error. This sample holds only a part of the variants without activity.

B1: glmS ribozyme (parent)
chain: AUAAAAGCGCCAGAACUACAGAAAUGUAGUUGACGAGGAGGAGGUUUAUCGAAUUUUCGGCGGAUGCCUCCAAA

Assays:
Conditions in all cases: with glucosamine-6-phosphate
[1] = variants of: B1; assay: self-cleavage kobs at 160 uM GlcN6P; higher = faster cleavage; RNA array
Procedure, shortened: (§1)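 Glucosamine-6-phosphate (40 μM to 10 mM) in HEPES/KCl/Mg(OAc)2 buffer was flowed over sequenced MiSeq chips, and tiles were imaged over ~14 h. Barcoded ribozyme variants there had been transcribed in situ by E. coli RNA polymerase and were tracked through a hybridised Cy3 probe at 37 °C. One- or two-exponential decay fits to per-tile medians, normalised to baseline and to non-cleaving reference variants, gave kobs. kcat and KM came from weighted Michaelis–Menten fits across concentrations.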

[2] = variants of: B1; assay: self-cleavage kobs at 640 uM GlcN6P; higher = faster cleavage; RNA array
Procedure, shortened: as §1

[3] = variants of: B1; assay: self-cleavage kobs at 2500 uM GlcN6P; higher = faster cleavage; RNA array
Procedure, shortened: as §1

[4] = variants of: B1; assay: self-cleavage kobs at 10000 uM GlcN6P; higher = faster cleavage; RNA array
Procedure, shortened: as §1

| Variant | self-cleavage kobs at 160 uM GlcN6P [1] [s⁻¹] | self-cleavage kobs at 640 uM GlcN6P [2] [s⁻¹] | self-cleavage kobs at 2500 uM GlcN6P [3] [s⁻¹] | self-cleavage kobs at 10000 uM GlcN6P [4] [s⁻¹] |
| --- | --- | --- | --- | --- |
| AUAAAAGCGCCAGUACUACAGAAAUGUAGUUGACUAGGGGGAGGUUUAUUGAAUUUUCGGCGGAUGCCUCCAAA [A14U G35U A39G C50U] | < 1e-05 | – | – | – |
| AUAAAAGAGCCAGAACUACAGAAAUGUAGUUGACGUGGAGGAGGUUUAUGGUAUUUUCGGCGGAUGCCUCCAAA [C8A A36U C50G A52U] | < 1e-05 | < 1e-05 | < 1e-05 | – |
| AUAAAAGCGCCAGAACUACAGAAAUGUAGUGGACAAGGAGGAGGUUUAUCGAAUUUUCGGCGGAUGACUCCAAA [U31G G35A C67A] | < 1e-05 | < 1e-05 | – | – |
| AUAAAAUCGCCAGUACUACAGAAAUGUAGUUGACGAGGAGGAGGUUUAUCGAAUCUUCGGCGGAUGCCUUCAAA [G7U A14U U55C C70U] | < 1e-05 | – | – | – |
| AUAAAAACGACAGAAGUACAGAAAUGUAAUUGACGAGGAGGUGGUUUAUCUAAUUUUCGGUGGAUGCCUCCAAA [G7A C10A C16G G29A A42U G51U C61U] | < 1e-05 | – | < 1e-05 | < 1e-05 |
| AUAAAAGCGCCCGAACUACAGAAAUGUAGUUGAUGAGGAGGAGGUUUAUCGAAUUUUCGGCGGAUGCCUCCAAA [A12C C34U] | < 1e-05 | – | < 1e-05 | < 1e-05 |
| AUAAAUGCGCCCGAACUACAGAAAUGUAGUUGACGCGCAGGAGGUUUAUCGAAUUUUCGGCGGAUGCCUCUAAA [A6U A12C A36C G38C C71U] | < 1e-05 | < 1e-05 | < 1e-05 | – |
| AUAAAAGCGCCAGAACUACAGAAAUGUAGUUGGCGAGGAGGCGGUUUAUCGAAUUUUCGGCGGAUGCCUCCAAA [A33G A42C] | < 1e-05 | < 1e-05 | < 1e-05 | < 1e-05 |
| AUAAAAGCGCCAGAACUACAGAAAUGUAGUUGACGAGGAGGAGGAUUAUCGAAUUUUCGGCGGAUGGAUCCAAA [U45A C67G C68A] | 7.91e-05 ± 1.9e-05 | 0.000177 ± 4.1e-05 | 0.000173 ± 4.7e-05 | – |
| AUAAAAGCGCCUGAACUACAGAAAUGUAGUUGACUAGGAGGAGGUUUAUCGAAUGUUCGGCGGAUGCCUCCAAA [A12U G35U U55G] | < 1e-05 | – | – | – |
| AUAAAAGCGCCAGAACUACAGAAAUGUAGUUGACGAGGAGGAGGUUUAUCGAAGUAUCGGCGGAUGCCUCCAAA [U54G U56A] | 0.000806 ± 0.00016 | 0.00244 ± 0.00071 | 0.012 ± 0.0054 | 0.0311 ± 0.013 |
| AUAAAUGCGCCAGAACUACAGAAAUGUAGUUGACGAGGAGGAGGUUUAUCGAAUUUUCGGCGGAUAGCUCCAAA [A6U G66A C67G] | < 1e-05 | – | – | – |
| AUAAAGGCUCCAGAACUACAGAAAUGUAGUUCACGAGGAUGAGGAUGAUCGAAUUUUCGGCGGAUGCCCCCAAA [A6G G9U G32C G40U U45A U47G U69C] | < 1e-05 | – | – | – |
| AUAAAAGCGCGAGAACUACAGAAAUGUAGUUGACGAGGAGGAGGUUUAUCGAAUUUUCGGCGGAUGUCUCCAAA [C11G C67U] | < 1e-05 | < 1e-05 | < 1e-05 | – |
| AUAAAAGCGCCAGAACUACAGAAAUGUAGUUGACGAGGAGGAGGUAUAUCGAAUUUUCGGCGGAGGCCUCCAAA [U46A U65G] | 0.000293 ± 6.7e-05 | 0.000975 ± 0.00016 | 0.00122 ± 0.00021 | 0.00301 ± 0.00058 |
